Biological target: Psilocybe mexicana IasA (indole-3-acetaldehyde synthase), C-terminally hexahistidine-tagged (Psilocybe mexicana)
Experiment: SEC; Superdex 200 increase 10/300 GL, native protein, 50 mM sodium phosphate, 150 mM NaCl, pH 7.2, 0.5 mL/min

stoichiometry N: 2
Substance: Psilocybe mexicana IasA (indole-3-acetaldehyde synthase), C-terminally hexahistidine-tagged (enzyme)
